Experimental data taken from the nanobody polyreactivity screen of Harvey et al. (2022).

Assay: yeast display, Sf9 membrane polyspecificity reagent, FACS + sequencing; frameworks hold sequencing errors
How it was run: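 Genes from sorted yeast were amplified by colony PCR, read by MiSeq 2 × 250 sequencing and filtered on CDR length. These cells carried a synthetic nanobody library in Saccharomyces cerevisiae BJ5465 and were sorted by FACS into low and high (top ~1%) gates on anti-HA and streptavidin fluorescence. Polyreactivity is labelled according to the gate of origin.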

Sequence	polyreactivity (PSR sort gate)
QLQLVESAAGLFQAGVSHRLSCDASGSTLSQNSMGGYRQAPGKEREFVADISGSGDSTYYADSVKGRFTISRDNAKNTVYLQMNSLKAEDTAVYYCATPSPHVGLKWEYDYWGQGTQVTVSS	low polyreactivity
QLQLVESGAGLVQAGGSLRLSCAASGSTFTVYGMAWYRQAPGKERELVAAITYSGGSTYYADSVKGRFTISRDNAKHTVYLTMNSLKPEDTGVYYCAAAGSQYYRRWYDYWGQGTQVTVSS	low polyreactivity
QLQLVESGGGLVLAGGSLRLSCAASGYLFQRTAKGCYRQATGKVRELVSTISRGGARTSYAYSVKGRFTISSDNANNTVYLQMNSLKPEDTAVYYCAKSYRKAGGMWSYGYWGQGTQVTVSS	high polyreactivity
QLQLVESGGGLVQAGGSLRISCAASGSTFFLNAMGWYRQAPGKERELVAAITSGSGNTYYADSVKGRFTISRDNAKNTVYLQMNSLKPADSAVYYCNVTRFVYRPYGLDRDDYWGQGTQGTVSS	low polyreactivity
QLQLVESGGGLVQAGGSLRLSCAASASTFYRYAMCCYIQAPGKERELVAGISSSGGSTYYADSVKGRFTISRDNAKNTVYLQMNSLKPEDTAVYYCAAVGQWGYGYWGQGTQVTVSS	high polyreactivity
QLQLVESGGGLVQAGGSLRLSCAASGFIFADYAMGWYRQAPGKERELVAAISSNGGSTYYADSVKGRFTISRDNAKNTVYLQMNSLKPEDTAVYYCAVRHRYYKDYEFDYWGQGTQVTVSS	high polyreactivity
QLQLVESGGGLVQAGGSLRLSCAASGFTFGVYAMGWYRQAPGKERELVAAISTTVGSTYYADSVKGRYTISRDNAKNTVYLQMNSLKPEDTAVYYCAAEYTGYISYYIYEDWGQGTQVTVSS	low polyreactivity
QLQLVESGGGLVQAGGSLRLSCAASGFTFSGYAMGWYRQAPGKERELVAAITKRGGSTYYADSVKGRFTISRDNAKNTVYLQMNSLKPEDTAVYYCAARGYISRYDARANAVQGNYWGQGTQVTVSS	high polyreactivity
QLQLVESGGGLVQAGGSLRLSCAASGFTFYVNAMGWYRQDPGKETEFVAAIDWSDTSTYYADSVKGRFTISRDNAKNTVYLQMISLKPVDTAVYYCAADFSPYDYDYWGQGTQVTVSS	high polyreactivity
QLQLVESGGGLVQAGGSLRLSCAASGGIFPNYVMGWYRKAPGKERELVAGITSGGNTNYADSVKGRFTISRDNAKNTVYLQMNSLKPEDTAVYYCAADGYRYSVYLIRNPMDYWGQGTQVTVSS	low polyreactivity
QLQLVESGGGLVQAGGSLRLSCAASGGTFQPNAMGWYIQAPGKESELVAAISWSDGSTYYADSVKGRFTISRDYAKNTVYLQMNSLKPEDTAVDYCAADFTYYDSPYRDYNYESWGQGTQVTVSS	low polyreactivity
QLQLVESGGGLVQAGGSLRLSCAASGIIFRYNTKGSYIQAPGKESELVAAIRTTGGSTYYADSVKGRFTISRDNAKNTVYLQMNSLKPEDPAVYYCAAVGFGRQGQEDYWGHGTQVTVSS	low polyreactivity
QLQLVESGGGLVQAGGSLRLSCAASGITFQWYAMGWYRQAPGKERELVARISSGGSTNYADSVKGRFTISCDNAKYTVYLQMNSVKPEDTAVYYCNARYFWFDYWGQGTQVTVSS	high polyreactivity
QLQLVESGGGLVQAGGSLRLSCAASGLIQANYAMGWYRQAPGKERELVAAISSSGGSTYSADSVKGRFSISRDNAKNTVYLQMKSLKPEDTAVYYCAAYPLYRRRWTGDYWGQGTQVTVSS	high polyreactivity
QLQLVESGGGLVQAGGSLRLSCAASGNTYFWYAMGWYRQAPGKERELVAAITSGGSTTYADSVKGRFTISRHNGMNTVYLQMNSLKPEDTAVYYCAQYTRDIFAVTFYEGEDYWGQGSQVTVSS	low polyreactivity
QLQLVESGGGLVQAGGSLRLSCAASGRIFHSYTMGCYTQAPGKHRELVSAITWSCGSTYYADSVKGRLTISRDHAKNTVYFQMNSLKAEDTSVFYCNAKRRVFRLSVTSAFDYWGQGTQVTVSS	high polyreactivity
QLQLVESGGGLVQAGGSLRLSCAASGRIFQRYAMGWYRQAPGKERELVAGITSSGGSTYYADSVKGRFTISRDNAKNTVYLQMNSLKPEDTAVYYCNAGGELRYYGYRAGGTTRSYDYWGQGTQVTVSS	low polyreactivity
QLQLVESGGGLVQAGGSLRLSCAASGRTFERNAMGWYRQARGQERELVAAITWSGVSTYYADSVKGRFTISRDNAKNTVYLQMNSLKPEDTAVYYCAADWDWRFHRMNYWGQGTQVTVSS	low polyreactivity
QLQLVESGGGLVQAGGSLRLSCAASGRTLSRYAMGWYRQAPGNERELVAVISSRGGSTYYADSVKGRFTISRDNAKNTVYLRMNSLKPEDTAVFYCAAVRNRHGYDYWGQGTQVTVSS	high polyreactivity
QLQLVESGGGLVQAGGSLRLSCAASGSIFDGNAMGWYRQAPGKERELVAAITNSGGSTYYADSVKGRFTISRDNAKNTVYLQMNSLKPEDTAVYYCNALPFAWRRYRWVRTMYYWGQGTQVTVSS	low polyreactivity
QLQLVESGGGLVQAGGSLRLSCAASGSIFNIYAMGWYRQAPGKERELVATITGIADYTYYADSVMGRFTISRDNAKNTVYLQMNSLKPEDTAVYYCAADKYVSEYDYWGQGTQVTVSS	low polyreactivity
QLQLVESGGGLVQAGGSLRLSCAASGSTFTWKAMGWYRQAPGKERELVAAITSGCRTYYADSVKGRFTISRDNAKNTVYIEMNSLKPEDTAVYYCAAKVRHYYSASNYYYWGQGTQVTVSS	high polyreactivity

Sequence	polyreactivity (PSR sort gate)
QLQLVESGGGLVQAGGSLRLSCAASGSTFVLYAKGWYRQAPGKERELVAAITWSGDDTYYADSVKGRFTISRDNEKNTVYLQMTSLKPEDTAVYSCAADGRGDLYVWPGIGGDYWGQGTQVTVSS	low polyreactivity
QLQLVESGGGLVQAGGSLRLSCAASGSTSVTNAMGWYRQAPGKEREFVATINYSGTSTYYADSVKGRFTISRDNAKNTVYLQMNSLKPEDTAVYYCNAHDFGFYRFSLPGYDYWGQGTQVTVSS	low polyreactivity
QLQLVESGGGLVQAGGSLRLSCAASGYTFKWYAMGCYRQAPGKERELVAAIRGSGGSSYYAVSVKGRFTISRDNAKNTVYLQMNSLKPEDTAGYYCNAVLRWAQNPRIFLGYDYWGQGTQVTVSS	high polyreactivity
QLQLVESGGGLVQAGGSLRLSCAASVFTFYVNAMGWYRQAPGKERELVAAISSSGTRTYYADSVKGRFTISRDNAKNTVYLKMNSMKPEDTAVYYCAARAYQHYKWGQGTQVTVSS	high polyreactivity
QLQLVESGGGLVQAGGSLRLSCAASVRTFNSYAMGRYRQAPGKERELVAGISTSGDNTYYADSVKGRFTISRDNAKNTVFLQMNSLKPEDSAVYYCATQFPPSTIYDYWGQGTQVTVSS	low polyreactivity
QLQLVESGGGLVQAGGSLRLSFAAYGRTFTSNAKGWSRPAPGKERELVAGITSSTGNTHYADSVKGRFTSSRDNAKNTVNFQMNSLKPEDTAVFYCAAVYYVRGYWGTYSRWYDYWGQGTQVTVSS	high polyreactivity
QLQLVESGGGLVQAGGSLRLTCAASGSIFEVKAMGWYRQAPGTERELVATITYSGGSTYYADSVKGRFTISRDNAKKTVYFQMNSLKPEDTAVYYCATHYVVWELYIYDYWGQGTQVTVSS	low polyreactivity
QLQLVESGGGLVQAGGSLRLTCAASGSTFTKYDMGWYRQAPGKERELVAAIRSGGDTNYADSVKGRFTISRDNAKYTVYLQMNSLKPEDTAVYYCNTLRNWYYQFDFNYWGQGTQVTVSS	low polyreactivity
QLQLVESGGGLVQAGGSRRISCAASGRTFDSNAMGSYRHAPGKERELVAAIYADSVKGRFTISRENAKNTVSLQMNFLKPEDTAVYYCAAETYSGQTYLGEYDFWGQGTQVTVSS	low polyreactivity
QLQLVESGGGLVQARGSLRLICADSGRIFTSYTMGWYRQAPGKERELVAAIDWSGGTTYYADSVKGPFTISRDNAKNTVYFQMISLKPEDTAVYYCSALYVIVGYYTYEYWGQGTQVTVSS	low polyreactivity
QLQLVESGRGLVQAGGSLRLSCAASGSTFQLYTMGLYRQAPGKERELVAAITGSGGSTYYADSVKGRFTISRDNAKNTVYLQMNSLKPEDTAVYYCAAKSSFRIAWEYYYWGQGTQGTVSS	high polyreactivity
QLQLVESRGGLVQAGGSLRVSCAASGRISQIYAMGWSRQAPGKERELVARITSTDSTYYADSVKGRFTISRDNAKNTVYLQMNSLKPEDTAVYYCAASWWSPYDYWGQGTQVTVSS	low polyreactivity
QLQLVESVGGLDQAGGSLRLSCAASGSIFIRNAIGSYRQAPGKERELVAAISSTGSTYYADSVKGRFTISRDNAKNTVYLQMNSLKPEDTAVYYCADYYTVAMDYWGQGTQVTVSS	low polyreactivity
QLQLVESVGGLDQAGGSLRLSCAASRSNFGPYAIGWYRQAPGKERELVAAITWSGDSTYYADSVKGRFTISRDNEKNTVYLQMNSLKPEDTAVYYCAAETFIWGKGTQVTVSS	low polyreactivity
QLQLVESVRGLVQAGGSLRLSCAASGGIFDTYAKGWYRQAPCKERELVASISRSGSTNYADSVKGRFTISRDNAKNTVYLQMNSLKPEDSAVYYCAADVFYSIYDYWGQGTQVTVSS	low polyreactivity
QLQLVETGGGLVQAGGSLRLSCASSGRTFTAYAMVWYREAAGKESELVAAITLSGGRTYYADSVKGRFTISRDNAKNTVYLQMNSLKPEDTAVYYCATDYYWGQGTQVTVSS	high polyreactivity
QLQQHESGGGLVQAGDSPRLSCAESDNIFPDSVMCWYLQAPGKERELVATIGFGATTNYADSVKGRFTISRDNAKNTVYLQMNCLKPEDTAVYYSAADPLNYEYFCYWGQGTQVTVSS	low polyreactivity
QLQRVESGGGLVQAGGSLRLSCAASGSIFNENAMGWYIQAPGKERELVAGIDSGGNTYYADSVKGRFTISRDNAKNTVYLQMISLKPEDTAVYYCAKRGVPVRASATFLFEFDYWGQGTQVPVSS	low polyreactivity
QQQLQESGSGLVQAGGSLRLSCAASGNIFQDWVMGWYRQAPGKERELVAAISPGAITYYADSVKGRFTISRDNAKNTVYLQTNSLKPEDTAVYYCAAYYIVEYLHGYWGQGTRVTVSS	low polyreactivity
QVELVESGGALVQAGGSLSLSCAASGIIFSIYAMGWDRQAPGKERELVAAITYSGGRTYYADSVKGRFTISRDNAKNTVYLQMNSLKPEDTAVYYCAAVGYGEYYWGQGTQVTVSS	high polyreactivity
QVELVESGGGLVQAGGSLRLSCAASGGTFYRYAMGWYRQAPGKEREFVASITQRGGRTYYADSVMGRFTISRDNAKNTVYLQMNSLIPEDTACYYCAAQGYKYWHGDGSDYWGQGSQVTVSS	high polyreactivity
